According to patent publication US20090304651A1 (published 2009):
Where a chain is given by its changes, count along the chain named. Numbers in names are those of the source.

B1: IGF2R domain 11 expressed in E. coli (pET-15), refolded and purified (receptor)
chain: NEHDDCQVTNPSTGHLFDLSSLSGRAGFTAAYSEKGLVYMSICGENENCPPGVGACFGQTRISVGKANKRLRYVDQVLQLVYKDGSPCPSKSGLSYKSVISFVCRPEAGPTNRPMLISLDKQTCTLFFSWHTPLACEQAT
notes: also called purified 11 from E. coli; native domain 11 protein
B2: Fc-tagged wild-type IGF2R domain 11 (11-Fc), human IgG1 Fc at the C-terminus, homodimer from Drosophila D.Mel-2 cells (Fc fusion)
chain: B1 chain
modifications: N-glycosylated with two 982.9 Da molecules of Man3GlcNAc2
notes: also called 11^Wild type-Fc; 11^Wild type -Fc; not shown: human IgG1 Fc domain, amplified from IMAGE clone 4851063
B3: Fc-tagged enhanced mutant IGF2R domain 11 (11^E1544K-Fc), human IgG1 Fc at the C-terminus, homodimer from Drosophila D.Mel-2 cells (Fc fusion)
chain: B1 chain with E34K
modifications: N-glycosylated with two 982.9 Da molecules of Man3GlcNAc2
notes: not shown: human IgG1 Fc domain, amplified from IMAGE clone 4851063
B4: Fc-tagged null mutant IGF2R domain 11 (11^I1572A-Fc), human IgG1 Fc at the C-terminus, homodimer from Drosophila D.Mel-2 cells (Fc fusion)
chain: B1 chain with I62A
modifications: N-glycosylated with two 982.9 Da molecules of Man3GlcNAc2
notes: as for B3

How the values were obtained:
[1] = target: T1, recombinant human IGF-II (Insulin-like Growth Factor II) (human, UniProt P01344 25-91, biotinylated (Biotinyl-IGF-II, GroPep) where immobilised in SPR, site not stated; not biotinylated in ITC and as SPR analyte); test: SPR, IGF-II immobilised, kinetic fit
T1 construct: also called IGF2; IGF-2
Experimental: (§1) Kinetic analysis by Surface Plasmon Resonance (SPR) was conducted on a BIAcore 3000 biosensor (BIAcore, Uppsala, Sweden) at 25° C. in HBS-EP (10 mM HEPES, pH 7.4, 150 mM NaCl, 3 mM EDTA, 0.005% surfactant P20) at a flow rate of 40 μl/min. […] Kinetic experiments consisted of a two minute injection of analyte followed by a 100 s dissociation phase in running buffer, after which the binding surface was regenerated with a 2 minute injection of 2 M MgCl₂. A blank flow cell was used for in-line reference subtraction of changes due to differences in refractive index of running buffer versus sample and a buffer-only injection was used to subtract instrument noise and drift. Injections were performed in duplicate for each concentration and in a randomised order. Kinetic parameters were determined by global fitting of sensorgrams to a two-state (conformational change) binding model using BIAevaluation software version 4.0.1. In all cases the minor component made an insignificant contribution to the overall affinity and as such only the kinetic parameters of the major binding component were used. For each interaction the dissociation affinity constant (KD) was also calculated by fitting of the response of each concentration at equilibrium to a steady-state affinity model using BIAevaluation. In order to investigate the influence of ionic strength, kinetic experiments were conducted in HBS-EP running buffers containing the desired NaCl concentration. In each case, analyte samples were made up in the appropriate running buffer prior to injection.

[2] = target: T1, recombinant human IGF-II (Insulin-like …); test: SPR, IGF-II immobilised, steady state
Experimental: as §1, with “In order to investigate the influence of ionic strength, kinetic experiments were conducted in HBS-EP running buffers containing the desired NaCl concentration. In each case, analyte samples were made up in the appropriate running buffer prior to injection.” left out

[3] = target: T1, recombinant human IGF-II (Insulin-like …); test: SPR, IGF-II immobilised, bivalent analyte model
Experimental: (§2) Kinetic experiments consisted of a two minute injection of analyte followed by a 100 s dissociation phase in running buffer, after which the binding surface was regenerated with a 2 minute injection of 2 M MgCl₂. A blank flow cell was used for in-line reference subtraction of changes due to differences in refractive index of running buffer versus sample and a buffer-only injection was used to subtract instrument noise and drift. Injections were performed in duplicate for each concentration and in a randomised order. Kinetic parameters were determined by global fitting of sensorgrams to a two-state (conformational change) binding model using BIAevaluation software version 4.0.1. In all cases the minor component made an insignificant contribution to the overall affinity and as such only the kinetic parameters of the major binding component were used. For each interaction the dissociation affinity constant (KD) was also calculated by fitting of the response of each concentration at equilibrium to a steady-state affinity model using BIAevaluation. […]
(§3) The affinity of versions of Fc-tagged domain 11 fusion proteins, and domain 11 constructs, for IGF-II were compared using surface plasmon resonance (BIAcore 3000). […] The Fc-tagged domain 11 kinetic data performed in triplicate generated sensorgrams that were analyzed using a bivalent analyte model.

[4] = target: T1, recombinant human IGF-II (Insulin-like …); test: SPR, IGF-II immobilised, bivalent analyte model, kd1
Experimental: as §2, §3

[5] = target: T2, recombinant human IGF-I (Insulin-like Growth Factor I) (human, UniProt P05019 49-118, biotinylated (Biotinyl-IGF-I, GroPep), site not stated); test: SPR, biotinylated IGF-I immobilised
T2 construct: also called IGF1; Biotinyl-IGF-I
Experimental: (§4) Kinetic experiments consisted of a two minute injection of analyte followed by a 100 s dissociation phase in running buffer, after which the binding surface was regenerated with a 2 minute injection of 2 M MgCl₂. A blank flow cell was used for in-line reference subtraction of changes due to differences in refractive index of running buffer versus sample and a buffer-only injection was used to subtract instrument noise and drift. Injections were performed in duplicate for each concentration and in a randomised order. Kinetic parameters were determined by global fitting of sensorgrams to a two-state (conformational change) binding model using BIAevaluation software version 4.0.1. In all cases the minor component made an insignificant contribution to the overall affinity and as such only the kinetic parameters of the major binding component were used. For each interaction the dissociation affinity constant (KD) was also calculated by fitting of the response of each concentration at equilibrium to a steady-state affinity model using BIAevaluation. In order to investigate the influence of ionic strength, kinetic experiments were conducted in HBS-EP running buffers containing the desired NaCl concentration. In each case, analyte samples were made up in the appropriate running buffer prior to injection.
(§5) The affinity of versions of Fc-tagged domain 11 fusion proteins, and domain 11 constructs, for IGF-II were compared using surface plasmon resonance (BIAcore 3000). Attempts were made to immobilize Fc-tagged domain 11 proteins upon a sensor chip surface (CM5 and CM5-proteinA) but we encountered similar problems as described above with immobilised monomeric domain 11. Instead, immobilisation of biotinylated IGF-I and IGF-II on separate flow cells of a streptavidin coated sensor chip (BIAcore) generated reproducible sensorgram profiles when Fc-tagged and untagged domain 11 proteins were passed over the surface as analytes. The Fc-tagged domain 11 kinetic data performed in triplicate generated sensorgrams that were analyzed using a bivalent analyte model.

[6] = target: T1, recombinant human IGF-II (Insulin-like …); test: SPR, IGF-II immobilised, bivalent analyte model, ka1
Experimental: as §2, §3

[7] = target: T1, recombinant human IGF-II (Insulin-like …); test: SPR, IGF-II immobilised
Experimental: as §4, §5

[8] = target: T1, recombinant human IGF-II (Insulin-like …); test: SPR, biotinylated IGF-II immobilised
Experimental: as §2, §3

T1 sequence (P01344 25-91 limits assumed): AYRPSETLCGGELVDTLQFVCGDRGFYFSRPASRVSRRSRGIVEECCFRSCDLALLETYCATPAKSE
T2 sequence (P05019 49-118 limits assumed): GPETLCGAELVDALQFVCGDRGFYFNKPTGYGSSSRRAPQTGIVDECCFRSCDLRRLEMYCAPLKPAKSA

Row | Binder | Kd [1] | koff [1] | kon [1] | Kd [2] | Kd [3] | koff [4] | binding result [5] | kon [6] | Ru response amplitude relative to 11-Fc at equal concentrations [7] | molar affinity relative to 11-Fc [7] | binding result [8]
1 | B1 | 114 nM | 0.063 s⁻¹ | 553000 M⁻¹ s⁻¹ | 114 nM | – | – | – | – | – | – | –
2 | B2 | – | – | – | – | 3.26 nM | 0.00445 s⁻¹ | no binding | 1.36e+06 M⁻¹ s⁻¹ | – | – | –
3 | B3 | – | – | – | – | 1.79 nM | 0.00401 s⁻¹ | no binding | 2.23e+06 M⁻¹ s⁻¹ | ~2 fold | ~2 fold | –
4 | B4 | – | – | – | – | – | – | no binding | – | – | – | no binding
